Measured values from patent publication US20240409658A1 (Seagen, published 2024).
Positions count from the first letter of the chain named. Names and notes keep the numbering of the source. Read-outs that look alike come from different tables or passages of the source. One block for each molecule: values may come before it.

Columns and labels:
[1] = molecular target: human CD228 (R&D Systems Custom02; Lot DCWR021505A) (human) (UniProt P08582); assay: ELISA on plate-coated human CD228, pH 4
[2] = molecular target: human CD228 (R&D Systems Custom02; Lot DCWR021505A) (human) (UniProt P08582); assay: ELISA on plate-coated human CD228, pH 5.1
[3] = molecular target: human CD228 (R&D Systems Custom02; Lot DCWR021505A) (human) (UniProt P08582); assay: ELISA on plate-coated human CD228, pH 5.6
[4] = molecular target: human CD228 (R&D Systems Custom02; Lot DCWR021505A) (human) (UniProt P08582); assay: ELISA on plate-coated human CD228, pH 5.9
[5] = molecular target: human CD228 (R&D Systems Custom02; Lot DCWR021505A) (human) (UniProt P08582); assay: ELISA on plate-coated human CD228, pH 6.3
[6] = molecular target: human CD228 (R&D Systems Custom02; Lot DCWR021505A) (human) (UniProt P08582); assay: ELISA on plate-coated human CD228, pH 7.1
[7] = molecular target: human CD228 (R&D Systems Custom02; Lot DCWR021505A) (human) (UniProt P08582); assay: ELISA on plate-coated human CD228, pH 7.4
[8] = molecular target: human CD228 (R&D Systems Custom02; Lot DCWR021505A) (human) (UniProt P08582); assay: ELISA on plate-coated human CD228, pH 7.5
[9] = molecular target: human CD228 (R&D Systems Custom02; Lot DCWR021505A) (human) (UniProt P08582); assay: ELISA on plate-coated human CD228, pH 4.55
[10] = molecular target: human CD228 (R&D Systems Custom02; Lot DCWR021505A) (human) (UniProt P08582); assay: ELISA on plate-coated human CD228, pH 6.66
[11] = molecular target: T1, human CD228 on the cell surface (RPMI-7951 cells stably expressing human CD228; A375 cells) (human) (UniProt P08582); assay: competition flow cytometry, RPMI-7951 cells stably expressing human CD228; competitor 5 nM AF647-labeled mL49; unlabeled antibody 0.06-1000 nM
T1 sequence (looked up): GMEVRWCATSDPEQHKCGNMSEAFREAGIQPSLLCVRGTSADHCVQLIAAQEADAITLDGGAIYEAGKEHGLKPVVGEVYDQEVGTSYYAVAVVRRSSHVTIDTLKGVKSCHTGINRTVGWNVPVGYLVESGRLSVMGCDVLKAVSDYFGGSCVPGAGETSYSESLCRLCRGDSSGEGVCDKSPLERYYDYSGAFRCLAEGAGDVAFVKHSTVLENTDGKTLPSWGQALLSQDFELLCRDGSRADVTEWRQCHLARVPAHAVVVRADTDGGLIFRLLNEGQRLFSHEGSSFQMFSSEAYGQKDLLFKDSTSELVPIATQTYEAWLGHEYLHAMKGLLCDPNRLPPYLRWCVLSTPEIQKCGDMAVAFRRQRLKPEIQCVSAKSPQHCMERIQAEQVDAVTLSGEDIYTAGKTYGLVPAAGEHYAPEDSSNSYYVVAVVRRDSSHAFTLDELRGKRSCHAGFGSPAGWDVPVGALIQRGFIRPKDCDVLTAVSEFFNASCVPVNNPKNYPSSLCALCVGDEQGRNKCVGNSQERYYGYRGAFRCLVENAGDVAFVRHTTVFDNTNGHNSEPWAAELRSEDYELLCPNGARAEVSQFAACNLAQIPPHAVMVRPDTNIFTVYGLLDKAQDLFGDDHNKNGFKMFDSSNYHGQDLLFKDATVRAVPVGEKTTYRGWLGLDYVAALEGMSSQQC

[12] = molecular target: T2, human CD228 on the cell surface (RPMI-7951 cells stably expressing human CD228; A375 cells) (human, UniProt P08582 20-709); assay: as above
T2 construct: whole, on cells; also called p97; melanotransferrin
T2 sequence (looked up): T1 sequence (looked up)
Procedure: (§1) Binding curves for each resulting antibody was determined by a competition binding assay. Briefly, 1×10⁵ RPMI-7951 cells stably expressing human CD228 were aliquoted per well of a 96-well v-bottom plates on ice. […] Cells were pelleted and washed 3 times with PBS/BSA. The cells were pelleted and resuspended in 125 μL of PBS/BSA. Fluorescence was analyzed by flow cytometry, using percent of saturated fluorescent signal to determine percent labeled murine CD228 mAb bound.

[13] = molecular target: T2, human CD228 on the cell surface …; assay: as above; remark: listed apart in the source
Procedure: as §1

[14] = molecular target: T2, human CD228 on the cell surface …; assay: saturation binding by flow cytometry on RPMI-7951 cells stably expressing human CD228; apparent KD
Procedure: (§2) The KD for each resulting antibody was then determined by a saturation binding assay. Briefly, 1×10⁵ RPMI-7951 cells stably expressing human CD228 were aliquoted per well of a 96-well v-bottom plates. Each CD228 antibody was added in concentrations ranging from 0.05 pM to 340 nM and incubated on ice for 60 minutes. Cells were pelleted and washed 3× with PBS/BSA followed by addition of 10 ug/ml of a PE labeled anti-human IgG goat secondary antibody and incubated on ice for an additional 60 minutes. Cells were pelleted and washed 3× with PBS/BSA and resuspended in 125 μL of PBS/BSA. Fluorescence was analyzed by flow cytometry, using percent of saturated fluorescent signal to determine percent bound and to subsequently calculate apparent KD. The binding curves for recombinant human anti-CD228 antibodies are shown in FIG. 13 and the KD for cL49ec (chimeric LA9 with an S239C mutation in the […] constant region), hL49 HALA G1, hL49 HALB G1, and hL49 HALC G1 are shown in Table 8. The antibody called “HALC,” “hL49,” or “hL49-HALC” which comprises heavy chain “HA” and the light chain “LC” was selected for use in all other experiments.

[15] = molecular target: T2, human CD228 on the cell surface …; assay: saturation binding by flow cytometry, RPMI-7951 cells stably expressing human CD228; PE anti-human IgG secondary; row 'ug/mL' of the drawn table headed 'kD'
Procedure: as §2

[16] = molecular target: T2, human CD228 on the cell surface …; assay: competition flow cytometry, RPMI-7951 cells stably expressing human CD228; competitor 5 nM AF647-labeled mL49; unlabeled antibody 0.06-1000 nM; remark: listed apart in the source
Procedure: as §1

[17] = molecular target: T2, human CD228 on the cell surface …; assay: as above; remark: listed apart in the source
Procedure: as §1

[18] = molecular target: T2, human CD228 on the cell surface …; assay: as above; remark: listed apart in the source
Procedure: as §1

[19] = molecular target: T2, human CD228 on the cell surface …; assay: as above; remark: listed apart in the source
Procedure: as §1

Molecule: cL235 (antibody)
- EC50 [1]: 0.809 nM
- EC50 [2]: 0.756 nM
- EC50 [3]: 0.74 nM
- EC50 [4]: 0.838 nM
- EC50 [5]: 0.749 nM
- EC50 [6]: 0.724 nM
- EC50 [7]: 0.767 nM
- EC50 [8]: 0.694 nM
- EC50 [9]: 0.727 nM
- EC50 [10]: 0.757 nM

B4: hL49ec HALA (antibody, V domains shown)
VH: QVQLQESGPGLVKPSETLSLTCTVSGDSITSGYWNWIRQPPGKGLEYIGYISDSGITYYNPSLKSRVTISRDTSKNQYSLKLSSVTAADTAVYYCARRTLATYYAMDYWGQGTLVTVSS
VL: DFVMTQSPLSLPVTLGQPASISCRASQSLVHSNGNTYLHWFQQRPGQSPRRLIYRVSNRFSGVPDRFSGSGSGTDFTLKISRVEAEDVGVYYCSQSTHVPPTFGQGTKLEIK
notes: Same variable regions as m5 (hL49 HALA G1); The sheet prints 'ec', so it is kept apart from the G1 form; also called HALA in the 'ec' format
- IC50 (read off the curve) [12]: ~40 nM
- IC50 (read off the curve) [13]: ~40 nM

B6: hL49 HALA G1 (antibody, V domains shown)
VH: B4 VH
VL: B4 VL
notes: Humanized L49 with heavy chain HA and light chain LA; 'G1' (IgG1)
- Kd [14]: 5.3 nM
- Kd [15]: 0.8 µg/mL

B8: hL49 HALB G1 (antibody, V domains shown)
VH: B4 VH
VL: B4 VL with F41Y, R51L
notes: Humanized L49 with heavy chain HA and light chain LB; 'G1' (IgG1)
- Kd [14]: 7.8 nM
- Kd [15]: 1.2 µg/mL

B10: cL49ec (chimeric L49 with an S239C mutation) (antibody, V domains shown)
VH: EVQLQESGPSLVKPSQTLSLTCSVTGDSITSGYWNWIRKFPGNKLEYMGYISDSGITYYNPSLKSRISITRDTSKNQYYLQLNFVTAEDTATYNCARRTLATYYAMDYWGQGTSVTVSS
VL: DFVMTQTPLSLPVSLGDQASISCRASQSLVHSNGNTYLHWYLQKPGQSPKLLIYRVSNRFSGVPDRFSGSGSGTDFTLKISRVEAEDLGVYFCSQSTHVPPTFGGGTKLEIK
notes: Human constant regions with S239C; also called chimeric LA9
- Kd [14]: 5.8 nM
- IC50 (read off the curve) [12]: ~30 nM
- IC50 (read off the curve) [13]: ~30 nM
- IC50 (read off the curve) [18]: ~30 nM
- IC50 (read off the curve) [19]: ~30 nM
- Kd [15]: 0.9 µg/mL

The remaining lines, values ahead:

- IC50 (read off the curve) [11]: 60 nM
B1: hL49ec HCLA (antibody, V domains shown)
VH: B4 VH with P40F, I48M, V67I, S84F, Y94N
VL: B4 VL

- IC50 (read off the curve) [11]: 20 nM
B2: hL49ec HCLB (antibody, V domains shown)
VH: B4 VH with P40F, I48M, V67I, S84F, Y94N
VL: B4 VL with F41Y, R51L

- IC50 (read off the curve) [11]: 40 nM
B3: hL49ec HBLA (antibody, V domains shown)
VH: B4 VH with P40F, I48M, V67I
VL: B4 VL

- IC50 (read off the curve) [11]: 30 nM
B5: hL49ec HBLB (antibody, V domains shown)
VH: B4 VH with P40F, I48M, V67I
VL: B4 VL with F41Y, R51L

- IC50 (read off the curve) [13]: 20 to 30 nM
B7: hL49ec HALB (antibody, V domains shown)
VH: B4 VH
VL: B4 VL with F41Y, R51L
notes: Same variable regions as m6 (hL49 HALB G1); The sheet prints 'ec', so it is kept apart from the G1 form; also called HALB in the 'ec' format

- IC50 (read off the curve) [16]: 10 to 20 nM
- IC50 (read off the curve) [12]: 10 to 20 nM
- IC50 (read off the curve) [17]: 10 to 20 nM
- IC50 (read off the curve) [13]: 10 to 20 nM
- IC50 (read off the curve) [18]: 10 to 20 nM
- IC50 (read off the curve) [19]: 10 to 20 nM
B9: mouse antibody L49 (mL49), AlexaFluor-647 labeled parental murine CD228 mAb (antibody, mouse IgG1, V domains shown)
VH: B10 VH
VL: B10 VL
notes: also called Mu L49
